These results are taken from article PMC8549523, “Human AdV-20-42-42, a Promising Novel Adenoviral Vector for Gene Therapy and Vaccine Product Development” (Journal of Virology, 2021).

This test concerns the target hexon protein of HAdV-20-42-42 (human adenovirus HAdV-20-42-42 (strain …)). Nature of the test: SPR; affinity and interaction half-life told as data not shown; CD46 immobilised, hexon as analyte. Conditions: both partners purified.

B1: CD46 (receptor)
chain: CEEPPTFEAMELIGKPKPYYEIGERVDYKCKKGYFYIPPLATHTICDRNHTWLPVSDDACYRETCPYIRDPLNGQAVPANGTYEFGYQMHFICNEGYYLIGEEILYCELKGSVAIWSGKPPICEKVLCTPPPKIKNGKHTFSEVEVFEYLDAVTYSCDPAPGPDPFSLIGESTIYCGDNSVWSRAAPECKVVKCRFPVVENGKQISGFGKKFYYKATVMFECDKGFYLDGSDTIVCDSNSTWDPPVPKCLKVLPPSSTKPPALSHSVSTSSTTKSPASSASGPRPTYKPPVSNYPGYPKPEEGILDSLD
As for B1, binding was put at a Kd of 13.5 µM.
